# Source: article PMC10784468 (Nature Communications, 2024)
# Like-named read-outs stand apart in the source and are kept apart here. Positions of bridges follow the written chain, without caps; N, C: chain ends. Residues, ends and D or L forms follow the SMILES beside them. *: point of attachment. X1 = O=C(O)c1ccc(-c2c3nc(c(-c4ccc(C(=O)O)cc4)c4ccc([nH]4)c(-c4ccc(C(=O)*)cc4)c4nc(c(-c5ccc(C(=O)O)cc5)c5ccc2[nH]5)C=C4)C=C3)cc1; X2 = O=C(O)C/C(=C/C(=O)*)C(=O)O
# Conditions: for Plasma Drug concentration: fluorescence; for Tumor Drug concentration: tumor lysate fluorescence
# Protocol: Moreover, ex vivo fluorescence imaging of tumor and major organs was performed to investigate the dose-dependent tumor accumulation of Gi-F-CAA (Fig. 3e and Supplementary Fig. 25). […] Subsequently, time-dependent in vivo fluorescence imaging of EJ xenograft mice was conducted to investigate the in vivo biodistribution and metabolism of Gi-F-CAA after administrated with Gi-F-CAA (8 mg/kg in 100 μL PBS). […] Representative time-dependent fluorescence images of tumor tissue lysates and plasma were acquired after intravenous administration with Gi-F-CAA (8 mg/kg in 100 μL PBS) (Fig. 3h).
# Firstly, A density of 5 × 10^6 EJ cell resuspended in Matrigel were subcutaneously injected into the right hind of mice to construct EJ xenograft model. When the tumor volume reached about 200–400 mm^3, the mice were administrated with Cy labeled Gi-F (8 mg/kg in 100 μL PBS), Cy labeled Gi-F-SA (8 mg/kg in 100 μL PBS) and Cy labeled Gi-F-CAA (8 mg/kg in 100 μL PBS) by intravenous injection for in vivo fluorescence imaging at different timepoints (10 min, 20 min, 40 min, 1 h, 2 h, 4 h, 8 h, 12 h and 24 h) with in vivo imaging system (IVIS). Meanwhile, the EJ xenograft mice were sacrificed for collecting major organs and tumors to evaluate the biodistribution of Gi-F-CAA.
# [1] = EJ xenograft mice, i.v. 8 mg/kg, 0.017 h, mice 1
# [2] = EJ xenograft mice, i.v. 8 mg/kg, 0.017 h, mice 2
# [3] = EJ xenograft mice, i.v. 8 mg/kg, 0.017 h, mice 3
# [4] = EJ xenograft mice, i.v. 8 mg/kg, 0.083 h, mice 1
# [5] = EJ xenograft mice, i.v. 8 mg/kg, 0.083 h, mice 2
# [6] = EJ xenograft mice, i.v. 8 mg/kg, 0.083 h, mice 3
# [7] = EJ xenograft mice, i.v. 8 mg/kg, 0.167 h, mice 1
# [8] = EJ xenograft mice, i.v. 8 mg/kg, 0.167 h, mice 2
# [9] = EJ xenograft mice, i.v. 8 mg/kg, 0.167 h, mice 3
# [10] = EJ xenograft mice, i.v. 8 mg/kg, 0.25 h, mice 1
# [11] = EJ xenograft mice, i.v. 8 mg/kg, 0.25 h, mice 2
# [12] = EJ xenograft mice, i.v. 8 mg/kg, 0.25 h, mice 3
# [13] = EJ xenograft mice, i.v. 8 mg/kg, 0.5 h, mice 1
# [14] = EJ xenograft mice, i.v. 8 mg/kg, 0.5 h, mice 2
# [15] = EJ xenograft mice, i.v. 8 mg/kg, 0.5 h, mice 3
# [16] = EJ xenograft mice, i.v. 8 mg/kg, 0.75 h, mice 1
# [17] = EJ xenograft mice, i.v. 8 mg/kg, 0.75 h, mice 2
# [18] = EJ xenograft mice, i.v. 8 mg/kg, 0.75 h, mice 3
# [19] = EJ xenograft mice, i.v. 8 mg/kg, 1 h, mice 1
# [20] = EJ xenograft mice, i.v. 8 mg/kg, 1 h, mice 2
# [21] = EJ xenograft mice, i.v. 8 mg/kg, 1 h, mice 3
# [22] = EJ xenograft mice, i.v. 8 mg/kg, 2 h, mice 1
# [23] = EJ xenograft mice, i.v. 8 mg/kg, 2 h, mice 2
# [24] = EJ xenograft mice, i.v. 8 mg/kg, 2 h, mice 3
# [25] = EJ xenograft mice, i.v. 8 mg/kg, 4 h, mice 1
# [26] = EJ xenograft mice, i.v. 8 mg/kg, 4 h, mice 2
# [27] = EJ xenograft mice, i.v. 8 mg/kg, 4 h, mice 3
# [28] = EJ xenograft mice, i.v. 8 mg/kg, 8 h, mice 1
# [29] = EJ xenograft mice, i.v. 8 mg/kg, 8 h, mice 2
# [30] = EJ xenograft mice, i.v. 8 mg/kg, 8 h, mice 3
# [31] = EJ xenograft mice, i.v. 8 mg/kg, 12 h, mice 1
# [32] = EJ xenograft mice, i.v. 8 mg/kg, 12 h, mice 2
# [33] = EJ xenograft mice, i.v. 8 mg/kg, 12 h, mice 3
# [34] = EJ xenograft mice, i.v. 8 mg/kg, 24 h, mice 1
# [35] = EJ xenograft mice, i.v. 8 mg/kg, 24 h, mice 2
# [36] = EJ xenograft mice, i.v. 8 mg/kg, 24 h, mice 3
smiles,measurement,setting,value
CC(C)C[C@H](NC(=O)c1ccc(-c2c3nc(c(-c4ccc(C(=O)O)cc4)c4ccc([nH]4)c(-c4ccc(C(=O)O)cc4)c4nc(c(-c5ccc(C(=O)O)cc5)c5ccc2[nH]5)C=C4)C=C3)cc1)C(=O)N[C@@H](CCCCNC(=O)/C=C(/CC(=O)O)C(=O)O)C(=O)N[C@@H](CC(C)C)C(=O)N[C@@H](CCCCN)C(=O)N[C@@H](CC(C)C)C(=O)N[C@@H](CCCCNC(=O)/C=C(/CC(=O)O)C(=O)O)C(=O)NCC(=O)N[C@@H](C)C(=O)N[C@H]1CSSC[C@@H](C(=O)N2CCC[C@H]2C(=O)N[C@H](C(=O)O)C(C)C)NC(=O)[C@@H]2CCCN2C(=O)[C@H](Cc2ccc(O)cc2)NC(=O)[C@H](CC(C)C)NC(=O)[C@@H]2CCCN2C(=O)[C@H](CC(C)C)NC(=O)[C@H](Cc2c[nH]c3ccccc23)NC(=O)[C@H](CC(N)=O)NC1=O [Gi-F-CAA] (X1-LK(X2)LKLK(X2)GACNWLPLYPCPV-OH; disulfide 9-17; C-terminus assumed),blood circulation half-life (t1/2),"EJ xenograft mice, i.v. 8 mg/kg in 100 μL PBS, plasma fluorescence, n = 3 mice",1.03 ± 0.192 h
same,Plasma Drug concentration,[1],33.86 µM
same,Plasma Drug concentration,[2],27.32 µM
same,Plasma Drug concentration,[3],28.25 µM
same,Plasma Drug concentration,[4],31.76 µM
same,Plasma Drug concentration,[5],25.29 µM
same,Plasma Drug concentration,[6],26.44 µM
same,Plasma Drug concentration,[7],24.34 µM
same,Plasma Drug concentration,[8],19.45 µM
same,Plasma Drug concentration,[9],20.15 µM
same,Plasma Drug concentration,[10],19.65 µM
same,Plasma Drug concentration,[11],15.52 µM
same,Plasma Drug concentration,[12],16.27 µM
same,Plasma Drug concentration,[13],15.69 µM
same,Plasma Drug concentration,[14],12.64 µM
same,Plasma Drug concentration,[15],13.24 µM
same,Plasma Drug concentration,[16],14.64 µM
same,Plasma Drug concentration,[17],11.89 µM
same,Plasma Drug concentration,[18],12.38 µM
same,Plasma Drug concentration,[19],13.02 µM
same,Plasma Drug concentration,[20],10.61 µM
same,Plasma Drug concentration,[21],11.06 µM
same,Plasma Drug concentration,[22],7.79 µM
same,Plasma Drug concentration,[23],8.53 µM
same,Plasma Drug concentration,[24],9.07 µM
same,Plasma Drug concentration,[25],6.64 µM
same,Plasma Drug concentration,[26],6.59 µM
same,Plasma Drug concentration,[27],6.96 µM
same,Plasma Drug concentration,[28],3.65 µM
same,Plasma Drug concentration,[29],4.12 µM
same,Plasma Drug concentration,[30],4.41 µM
same,Plasma Drug concentration,[31],2.66 µM
same,Plasma Drug concentration,[32],3.28 µM
same,Plasma Drug concentration,[33],3.5 µM
same,Plasma Drug concentration,[34],1.38 µM
same,Plasma Drug concentration,[35],1.99 µM
same,Plasma Drug concentration,[36],2.17 µM
same,Tumor Drug concentration,[1],11.93 µM
same,Tumor Drug concentration,[2],13.59 µM
same,Tumor Drug concentration,[3],9.61 µM
same,Tumor Drug concentration,[4],13.61 µM
same,Tumor Drug concentration,[5],15.1 µM
same,Tumor Drug concentration,[6],10.98 µM
same,Tumor Drug concentration,[7],14.15 µM
same,Tumor Drug concentration,[8],15.1 µM
same,Tumor Drug concentration,[9],11.74 µM
same,Tumor Drug concentration,[10],15.43 µM
same,Tumor Drug concentration,[11],16.04 µM
same,Tumor Drug concentration,[12],12.46 µM
same,Tumor Drug concentration,[13],17.54 µM
same,Tumor Drug concentration,[14],16.74 µM
same,Tumor Drug concentration,[15],14.43 µM
same,Tumor Drug concentration,[16],16.03 µM
same,Tumor Drug concentration,[17],16.19 µM
same,Tumor Drug concentration,[18],13.02 µM
same,Tumor Drug concentration,[19],14.49 µM
same,Tumor Drug concentration,[20],15.3 µM
same,Tumor Drug concentration,[21],11.94 µM
same,Tumor Drug concentration,[22],12.9 µM
same,Tumor Drug concentration,[23],13.97 µM
same,Tumor Drug concentration,[24],10.6 µM
same,Tumor Drug concentration,[25],10.23 µM
same,Tumor Drug concentration,[26],11.8 µM
same,Tumor Drug concentration,[27],8.38 µM
same,Tumor Drug concentration,[28],7.25 µM
same,Tumor Drug concentration,[29],8.28 µM
same,Tumor Drug concentration,[30],6.04 µM
same,Tumor Drug concentration,[31],5.72 µM
same,Tumor Drug concentration,[32],6.55 µM
same,Tumor Drug concentration,[33],4.61 µM
same,Tumor Drug concentration,[34],4.93 µM
same,Tumor Drug concentration,[35],5.65 µM
same,Tumor Drug concentration,[36],3.95 µM
same,tumor tissue lysate signal relative to plasma,"i.v. 8 mg/kg, from 1 h to 24 h",about 3 fold
same,level at time molar,"mouse, in vivo, iv, 8 mg/kg",16.2 µM
